PMC3195444 (Biochemical Journal, 2011)
Where “and” joins values, the source holds several entries; their conditions need not be identical. Equal values may be shown once.

Legend:
[1] = biological target: T1, sly1^E138K, Gal4 DNA-binding domain fusion (Arabidopsis thaliana, UniProt Q9STX3 1-151, E138K); assay: yeast three-hybrid
T1 sequence: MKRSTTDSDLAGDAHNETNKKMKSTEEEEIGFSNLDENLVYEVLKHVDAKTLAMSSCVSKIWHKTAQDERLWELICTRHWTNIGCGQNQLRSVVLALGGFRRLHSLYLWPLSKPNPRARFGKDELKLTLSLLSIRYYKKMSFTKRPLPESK

[2] = biological target: T2, MBP–GID1A (GIBBERELLIC ACID-… DWARF-1A, MBP fusion) (Arabidopsis thaliana, UniProt Q9MAA7 1-345); assay: SPR
T2 sequence: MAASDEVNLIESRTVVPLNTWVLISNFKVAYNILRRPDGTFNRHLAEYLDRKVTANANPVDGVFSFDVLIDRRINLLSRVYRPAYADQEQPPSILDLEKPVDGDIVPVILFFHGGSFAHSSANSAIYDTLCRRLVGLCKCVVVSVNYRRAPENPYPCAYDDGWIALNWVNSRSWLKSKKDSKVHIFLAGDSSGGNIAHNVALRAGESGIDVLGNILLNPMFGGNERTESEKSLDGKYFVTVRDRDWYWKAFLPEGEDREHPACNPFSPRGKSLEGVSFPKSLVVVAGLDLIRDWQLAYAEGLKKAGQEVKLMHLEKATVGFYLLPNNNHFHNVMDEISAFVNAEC

B1: RGL1 (REPRESSOR OF GA1-3-LIKE 1), Gal4 activation domain fusion (natural protein)
chain: MKREHNHRESSAGEGGSSSMTTVIKEEAAGVDELLVVLGYKVRSSDMADVAHKLEQLEMVLGDGISNLSDETVHYNPSDLSGWVESMLSDLDPTRIQEKPDSEYDLRAIPGSAVYPRDEHVTRRSKRTRIESELSSTRSVVVLDSQETGVRLVHALLACAEAVQQNNLKLADALVKHVGLLASSQAGAMRKVATYFAEGLARRIYRIYPRDDVALSSFSDTLQIHFYESCPYLKFAHFTANQAILEVFATAEKVHVIDLGLNHGLQWPALIQALALRPNGPPDFRLTGIGYSLTDIQEVGWKLGQLASTIGVNFEFKSIALNNLSDLKPEMLDIRPGLESVAVNSVFELHRLLAHPGSIDKFLSTIKSIRPDIMTVVEQEANHNGTVFLDRFTESLHYYSSLFDSLEGPPSQDRVMSELFLGRQILNLVACEGEDRVERHETLNQWRNRFGLGGFKPVSIGSNAYKQASMLLALYAGADGYNVEENEGCLLLGWQTRPLIATSAWRINRVE
In the case of B1, the “fold recruitment against the ΔDELLA mutant in the presence of GID1A/GA3” value [1] is reported as 4 fold.

B2: MBP–RGL1^N (RGL1^1–137, N-terminal or DELLA domain of RGL1, MBP fusion) (domain or fragment)
chain: MKREHNHRESSAGEGGSSSMTTVIKEEAAGVDELLVVLGYKVRSSDMADVAHKLEQLEMVLGDGISNLSDETVHYNPSDLSGWVESMLSDLDPTRIQEKPDSEYDLRAIPGSAVYPRDEHVTRRSKRTRIESELSST
B2 was tested, and the Ka [2] was 5.73e+08 M⁻¹ and 3.58e+08 M⁻¹ and 6.49e+08 M⁻¹.
